T1: recombinant human OX40 tagged with histidine tag (hOX40-His) (human, UniProt P43489 29-216)
T1 construct: bought (Reprokine); also called hOX-His; not shown: histidine tag
T1 sequence (looked up): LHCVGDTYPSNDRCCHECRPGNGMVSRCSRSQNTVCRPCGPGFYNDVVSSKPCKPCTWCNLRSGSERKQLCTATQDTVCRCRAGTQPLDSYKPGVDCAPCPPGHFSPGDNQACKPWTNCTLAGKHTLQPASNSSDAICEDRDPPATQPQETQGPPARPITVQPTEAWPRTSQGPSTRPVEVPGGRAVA


How the values were obtained:
[1] = target: T2, recombinant human IL-13 (rh-IL-13)-Fc (human, UniProt P35225 35-146, limits assumed); test: yeast surface display scFv, flow cytometry, 10 nM rh-IL-13
T2 construct: used for yeast surface display labelling; not shown: Fc (detected with anti human Fc)
T2 sequence (P35225 35-146 limits assumed): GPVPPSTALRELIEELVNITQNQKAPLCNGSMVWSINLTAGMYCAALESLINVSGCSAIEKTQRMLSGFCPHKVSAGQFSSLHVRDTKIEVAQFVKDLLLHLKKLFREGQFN

[2] = target: T2, recombinant human IL-13 (rh-IL-13)-Fc; test: yeast surface display flow cytometry, 10 nM rh-IL-13-Fc; MFI normalized to expression and to the positive control
Protocol: Isolated clones from the final sort were sequenced by extraction of plasmid DNA from the yeast clones using a Zymoprep kit (Zymo Research, USA) and the DNA was sequenced. […] Cells were washed and resuspended in ice-cold PBS 0.1% BSA buffer containing a fluorescent labeled secondary antibody as described above for 20 min and analyzed using a flow cytometer.

[3] = target: T3, recombinant human TSLP (hTSLP)-Fc (human, UniProt Q969D9 29-159, limits assumed); test: yeast surface display flow cytometry, 10 nM hTSLP-Fc; MFI normalized to expression and to the positive control
T3 construct: used for yeast surface display labelling; also called rhTSLP; not shown: Fc

[4] = target: T1, recombinant human OX40 tagged with …; test: yeast surface display scFv, flow cytometry, 90 nM hOX40-His

| Binder | binding result [3] | binding result [4] | also measured |
| --- | --- | --- | --- |
| C2 (yeast-displayed scFv clone) (scFv, V domains shown, also called Clone C2; C2-VH-L-VL; not shown: linker) VH: QMQLVESGGGVVQPGRSLRLSCAASGFTFRTYGMHWVRQAPGKGLEWVAVIWYDGSNKHYADSVKGRFTITRDNSKNTLNLQMNSLRAEDTAVYYCARAPQWELTAEAFDIWGQGTMVTVSS VL: SYVLTQPPSVSVAPGQTARITCGGNLIGSKLVHWYQQKPGQAPVLVVYDDSDRPSLIPERFSGSNSGNTATLTISRVEAGDEADYYCQVWDSSSDGVVFGGGTKLTVL |  |  | relative affinity (normalized MFI against the positive control) [1]: > 20 % of positive control |
| C37 (scFv, V domains shown, also called C37-VH-L-VL) VH: QMQLVESGGGVVQPGRSLRLSCAASGFTFRTYGMHWVRQAPGKGLEWVAVIWYDGSNKHYADSVKGRFTITRDNSKNTLNLQMNSLRAEDTAVYYCARAPQWELVAEAFDMWGQGTMVTVSS VL: SYVLTQPPSVSVAPGQTARITCGGNLIGSKLVHWYQQKPGQAPVLVVYDDSDRPSRIPERFSGSNSGNTATLTISRVEAGDEADYYCQVWDSSSDHVVFGGGTKLTVL | binds |  | binding result [2]: binds |
| C15 (scFv, V domains shown, also called C15-VH-L-VL) VH: QMQLVESGGGVVQPGRSLRLSCAASGFTFRTYGMHWVRQAPGKGLEWVAVIWYDGSNKHYADSVKGRFTITRDNSKNTLNLQMNSLRAEDTAVYYCARAPQWELVAEAFDLWGQGTMVTVSS VL: SYVLTQPPSVSVAPGQTARITCGGNLIGSKLVHWYQQKPGQAPVLVVYDDGDRPSWIPERFSGSNSGNTATLTISRVEAGDEADYYCQVWDSGSDGVVFGGGTKLTVL | binds |  |  |
| C9 (yeast-displayed scFv clone) (scFv, V domains shown, also called Clone C9; C9-VH-L-VL; not shown: linker) VH: QMQLVESGGGVVQPGRSLRLSCAASGFTFRTYGMHWVRQAPGKGLEWVAVIWYDGSNKHYADSVKGRFTITRDNSKNTLNLQMNSLRAEDTAVYYCARSPQWEWVHEAFDLWGQGTMVTVSS VL: SYVLTQPPSVSVAPGQTARITCGGNLIGSKLVHWYQQKPGQAPVLVVYDDGDRPSWIPERFSGSNSGNTATLTISRVEAGDEADYYCQVWDSSSDGVVFGGGTKLTVL |  |  | relative affinity (normalized MFI against the positive control) [1]: > 20 % of positive control |
| C6 (yeast-displayed scFv clone) (scFv, V domains shown, also called Clone C6; C6-VH-L-VL; not shown: linker) VH: QMQLVESGGGVVQPGRSLRLSCAASGFTFRTYGMHWVRQAPGKGLEWVAVIWYDGSNKHYADSVKGRFTITRDNSKNTLNLQMNSLRAEDTAVYYCARAPQWMLVAEAFDLWGQGTMVTVSS VL: SYVLTQPPSVSVAPGQTARITCGGNLIGSKLVHWYQQKPGQAPVLVVYDDSDRPSRIPERFSGSNSGNTATLTISRVEAGDEADYYCQVWDSSSDHVVFGGGTKLTVL |  |  | relative affinity (normalized MFI against the positive control) [1]: > 20 % of positive control |
| C17 (scFv, V domains shown, also called C17-VH-L-VL) VH: QMQLVESGGGVVQPGRSLRLSCAASGFTFRTYGMHWVRQAPGKGLEWVAVIWYDGSNKHYADSVKGRFTITRDNSKNTLNLQMNSLRAEDTAVYYCARAPQWELTSEAFDLWGQGTMVTVSS VL: SYVLTQPPSVSVAPGQTARITCGGNLIGSKLVHWYQQKPGQAPVLVVYDDSDRPSAIPERFSGSNSGNTATLTISRVEAGDEADYYCQVWDTSSDHVVFGGGTKLTVL | binds |  |  |
| C40 (yeast-displayed scFv clone) (scFv, V domains shown, also called C40-VH-L-VL; not shown: linker) VH: QMQLVESGGGVVQPGRSLRLSCAASGFTFRTYGMHWVRQAPGKGLEWVAVIWYDGSNKHYADSVKGRFTITRDNSKNTLNLQMNSLRAEDTAVYYCARSPQWEWVHEAFDLWGQGTMVTVSS VL: SYVLTQPPSVSVAPGQTARITCGGNNIGSKLVHWYQQKPGQAPVLVVYDDSDRPSRIPERFSGSNSGNTATLTISRVEAGDEADYYCQVWDTSSDGVVFGGGTKLTVL | binds |  | relative affinity (normalized MFI against the positive control) [1]: > 20 % of positive control |
| C13 (scFv, V domains shown, also called C13-VH-L-VL) VH: QMQLVESGGGVVQPGRSLRLSCAASGFTFRTYGMHWVRQAPGKGLEWVAVIWYDGSNKHYADSVKGRFTITRDNSKNTLNLQMNSLRAEDTAVYYCARAPQWELVAEAFDLWGQGTMVTVSS VL: SYVLTQPPSVSVAPGQTARITCGGNLLGSKLVHWYQQKPGQAPVLVVYDDGDRPSLIPERFSGSNSGNTATLTISRVEAGDEADYYCQVWDTSSDHVVFGGGTKLTVL | binds |  |  |
| C45 (scFv, V domains shown, also called C45-VH-L-VL) VH: QMQLVESGGGVVQPGRSLRLSCAASGFTFRTYGMHWVRQAPGKGLEWVAVIWYDGSNKHYADSVKGRFTITRDNSKNTLNLQMNSLRAEDTAVYYCARAPQWELTSEAFDLWGQGTMVTVSS VL: SYVLTQPPSVSVAPGQTARITCGGNLIGSKLVHWYQQKPGQAPVLVVYDDSDRPSEIPERFSGSNSGNTATLTISRVEAGDEADYYCQVWDSSSDGVVFGGGTKLTVL | binds |  |  |
| C26 (scFv, V domains shown, also called C26-VH-L-VL) VH: QMQLVESGGGVVQPGRSLRLSCAASGFTFRTYGMHWVRQAPGKGLEWVAVIWYDGSNKHYADSVKGRFTITRDNSKNTLNLQMNSLRAEDTAVYYCARAPQWELTAEAFDLWGQGTMVTVSS VL: SYVLTQPPSVSVAPGQTARITCGGNIIGSKLVHWYQQKPGQAPVLVVYDDGDRPSGIPERFSGSNSGNTATLTISRVEAGDEADYYCQVWDTSSDHVVFGGGTKLTVL | binds |  | binding result [2]: binds |
| C43 (scFv, V domains shown, also called C43-VH-L-VL) VH: QMQLVESGGGVVQPGRSLRLSCAASGFTFRTYGMHWVRQAPGKGLEWVAVIWYDGSNKHYADSVKGRFTITRDNSKNTLNLQMNSLRAEDTAVYYCARAPQWQLVAEAFDIWGQGTMVTVSS VL: SYVLTQPPSVSVAPGQTARITCGGNLIGSKLVHWYQQKPGQAPVLVVYDDSDRPSAIPERFSGSNSGNTATLTISRVEAGDEADYYCQVWDTSSDGVVFGGGTKLTVL | binds |  | binding result [2]: binds |
| C39 (scFv, V domains shown, also called C39-VH-L-VL) VH: QMQLVESGGGVVQPGRSLRLSCAASGFTFRTYGMHWVRQAPGKGLEWVAVIWYDGSNKHYADSVKGRFTITRDNSKNTLNLQMNSLRAEDTAVYYCARAPQWELTAEAFDLWGQGTMVTVSS VL: SYVLTQPPSVSVAPGQTARITCGGNLLGSKLVHWYQQKPGQAPVLVVYDDSDRPSWIPERFSGSNSGNTATLTISRVEAGDEADYYCQVWDTSSDHVVFGGGTKLTVL | binds |  | binding result [2]: binds |
| 3212ACOXC14 (OX40 library) (scFv, V domains shown, not shown: linker) VH: QVQLVESGGGVVQPGRSLRLDCKASGIEFSNSGMHWVRQAPGKGLEWVAVIWYDGSKRYYADSVKGRFTISRDNSKNTLFLQMNSLRAEDTAVYYCATNDDYWGQGTLVTVSS VL: EIVLTQSPATLSLSPGERATLSCRASQSVEHYLAWYQQKPGQAPRLLIYDASNRATGIPARFSGSGSGTDFTLTISSLEPEDFAVYYCQQYSNWPLTFGQGTKVEIK |  | binds |  |
| 3212ACOXC10 (OX40 library) (scFv, V domains shown, not shown: linker) VH: QVQLVESGGGVVQPGRSLRLDCKASGIDFSNSGMHWVRQAPGKGLEWVAVIWYDGSKRLYADSVKGRFTISRDNSKNTLFLQMNSLRAEDTAVYYCASNDDYWGQGTLVTVSS VL: EIVLTQSPATLSLSPGERATLSCRASQSVIHYLAWYQQKPGQAPRLLIYDASNRATGIPARFSGSGSGTDFTLTISSLEPEDFAVYYCQQYDNWPLTFGQGTKVEIK |  | binds |  |
| OX-Clone36 (OX40 library) (scFv, V domains shown, not shown: linker) VH: QVQLVESGGGVVQPGRSLRLDCKASGIDFSNSGMHWVRQAPGKGLEWVAVIWYDGSKRYYADSVKGRFTISRDNSKNTLFLQMNSLRAEDTAVYYCASNDDYWGQGTLVTVSS VL: EIVLTQSPATLSLSPGERATLSCRASQSVIHYLAWYQQKPGQAPRLLIYDASNRATGIPARFSGSGSGTDFTLTISSLEPEDFAVYYCQQYDNWPLTFGQGTKVEIK |  | binds |  |
| 3212ACOXC21 (OX40 library) (scFv, V domains shown, not shown: linker) VH: QVQLVESGGGVVQPGRSLRLDCKASGIEFSNSGMHWVRQAPGKGLEWVAVIWYDGSKRYYADSVKGRFTISRDNSKNTLFLQMNSLRAEDTAVYYCASNDDYWGQGTLVTVSS VL: EIVLTQSPATLSLSPGERATLSCRASQSVDHYLAWYQQKPGQAPRLLIYDASNFATGIPARFSGSGSGTDFTLTISSLEPEDFAVYYCQQYSNWPLTFGQGTKVEIK |  | binds |  |
| OX-Clone71 (OX40 library) (scFv, V domains shown, not shown: linker) VH: QVQLVESGGGVVQPGRSLRLDCKASGIDFSNSGMHWVRQAPGKGLEWVAVIWYDGSKRYYADSVKGRFTISRDNSKNTLFLQMNSLRAEDTAVYYCASNDDYWGQGTLVTVSS VL: EIVLTQSPATLSLSPGERATLSCRASQSVEHYLAWYQQKPGQAPRLLIYDASNPATGIPARFSGSGSGTDFTLTISSLEPEDFAVYYCQQYSNWPLTFGQGTKVEIK |  | binds |  |
| 3212ACOXC31 (OX40 library) (scFv, V domains shown, not shown: linker) VH: QVQLVESGGGVVQPGRSLRLDCKASGITFSNSGMHWVRQAPGKGLEWVAVIWYDGSKAYYADSVKGRFTISRDNSKNTLFLQMNSLRAEDTAVYYCATNDDYWGQGTLVTVSS VL: EIVLTQSPATLSLSPGERATLSCRASQSVYHYLAWYQQKPGQAPRLLIYDAENRATGIPARFSGSGSGTDFTLTISSLEPEDFAVYYCQQYNDWPLTFGQGTKVEIK |  | binds |  |
